Source: patent US20080195324A1

Molecular target: 10-subunit yeast RNA polymerase II (yeast) (UniProt P16370)
Experiment: 2.8 Å cocrystal structure; change in solvent-exposed surface of pol II residues, AREAIMOL, probe radius 1.4 Å

Work on α-amanitin (peptide) yielded a Δsurface area (Total) of -541 Å^2.
